Assay results taken from patent publication US20070286806A1, “Methods and Compositions for Modulating a Steroid Receptor” (Mount Sinai Hospital, priority 2004, published 2007).

Molecular target: T1, ERα (Homo sapiens, UniProt P03372)
T1 construct: expressed in transfected cells; host or cells: SHM (Syrian hamster myocyte) cells
T1 sequence (P03372 1-595): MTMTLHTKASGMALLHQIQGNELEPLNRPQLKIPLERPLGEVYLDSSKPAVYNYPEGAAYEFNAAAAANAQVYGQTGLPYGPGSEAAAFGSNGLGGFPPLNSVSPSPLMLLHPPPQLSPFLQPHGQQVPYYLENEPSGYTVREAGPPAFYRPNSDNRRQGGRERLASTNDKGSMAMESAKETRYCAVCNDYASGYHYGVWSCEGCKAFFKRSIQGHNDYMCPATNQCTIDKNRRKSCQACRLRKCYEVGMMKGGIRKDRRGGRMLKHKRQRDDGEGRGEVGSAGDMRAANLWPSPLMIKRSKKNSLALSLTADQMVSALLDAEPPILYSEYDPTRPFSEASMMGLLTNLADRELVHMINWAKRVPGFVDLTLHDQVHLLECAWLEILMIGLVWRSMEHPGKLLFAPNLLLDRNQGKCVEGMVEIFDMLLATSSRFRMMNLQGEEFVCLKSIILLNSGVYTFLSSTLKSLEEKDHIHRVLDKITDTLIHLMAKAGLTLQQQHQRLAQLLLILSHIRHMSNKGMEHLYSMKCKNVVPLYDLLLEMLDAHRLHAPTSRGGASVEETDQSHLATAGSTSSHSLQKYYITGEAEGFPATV
Assay: ERα transactivation, 3xERE luciferase reporter in SHM cells
Assay type: cell-based
Conditions: 3xERE promoter
Description: FIG. 4. PSF inhibit transactivation of PR but not estrogen receptor (ER). (A) SHM cells were transient cotransfected with PRA or PRB expression vectors with or without increasing dose (0.05, 0.1 and 0.2 μg) of His-PSF, together with 3×PRE (upper) or MMTV (lower) luciferase reporter vector. Four hours after transfection, culture medium was replaced with fresh DMEM containing 10 nM progesterone and the incubation continued for at least 30 hours. (B) SHM cells were transiently cotransfected with ERα or ERβ expression vector with (0.2 μg) or without His-PSF, together with 3×ERE luciferase reporter vector. Four hours after transfection, culture medium was replaced with fresh DMEM with (solid bar) or without (empty bar) 10 nM estrodial and incubation continued for at least 30 hours. Luciferase activity was measured and normalized by β-galatosidase activity. […]
For immunoprecipitation of the endogenous PR and PSF, T47D cells cultured in 150 mm dishes were lysed in 800 μl NETN buffer containing 150 mM NaCl plus protease inhibitor cocktail. […] Gels were treated with Enhancer (NEN, Boston, US) dried and analyzed by autoradiography. • Cell culture and transient transfection: SHM cells and 293T cells were maintained in DMEM plus 5% FCS (Sigma) as described before (22). […] Luciferase activity was determined by using the luciferin reagent (Promega) according to manufacture's protocol. […]

B1: polypyrimidine tract binding protein-associated splicing factor (protein)
chain: MSRDRFRSRGGGGGGFHRRGGGGGRGGLHDFRSPPPGMGLNQNRGPMGPGPGQSGPKPPIPPPPPHQQQQQPPPQQPPPQQPPPHQPPPHPQPHQQQQPPPPPQDSSKPVVAQGPGPAPGVGSAPPASSSAPPATPPTSGAPPGSGPGPTPTPPPAVTSAPPGAPPPTPPSSGVPTTPPQAGGPPPPPAAVPGPGPGPKQGPGPGGPKGGKMPGGPKPGGGPGLSTPGGHPKPPHRGGGEPRGGRQHHPPYHQQHHQGPPPGGPGGRSEEKISDSEGFKANLSLLRRPGEKTYTQRCRLFVGNLPADITEDEFKRLFAKYGEPGEVFINKGKGFGFIKLESRALAEIAKAELDDTPMRGRQLRVRFATHAAALSVRNLSPYVSNELLEEAFSQFGPIERAVVIVDDRGRSTGKGIVEFASKPAARKAFERCSEGVFLLTTTPRPVIVEPLEQLDDEDGLPEKLAQKNPMYQKERETPPRFAQHGTFEYEYSQRWKSLDEMEKQQREQVEKNMKDAKDKLESEMEDAYHEHQANLLRQDLMRRQEELRRMEELHNQEMQKRKEMQLRQEEERRRREEEMMIRQREMEEQMRRQREESYSRMGYMDPRERDMRMGGGGAMNMGDPYGSGGQKFPPLGGGGGIGYEANPGVPPATMSGSMMGSDMRTERFGQGGAGPVGGQGPRGMGPGTPAGYGRGREEYEGPNKKPRF
notes: expressed from transfected His-PSF vector or in vitro translated
- inhibitory effects on ERα: not observed
